From PMC10605901, “Clinical Cases and the Molecular Profiling of a Novel Childhood Encephalopathy-Causing GNAO1 Mutation P170R” (Cells, 2023) come the findings set out here.

A value given as a limit tells only on which side of the number the result lay.

The target in this assay is T1, Gαo[P170R]^Gly92-GFP (human, UniProt P09471-1 1-354, P170R).
T1 construct: Pathogenic de novo variant found in two patients; also called Gαo[P170R]-GFP; P170R mutant; source: N2a cells, transfected, in lysate; not shown: GFP, internal (after residue 92), kept
T1 sequence (P09471 whole entry P170R): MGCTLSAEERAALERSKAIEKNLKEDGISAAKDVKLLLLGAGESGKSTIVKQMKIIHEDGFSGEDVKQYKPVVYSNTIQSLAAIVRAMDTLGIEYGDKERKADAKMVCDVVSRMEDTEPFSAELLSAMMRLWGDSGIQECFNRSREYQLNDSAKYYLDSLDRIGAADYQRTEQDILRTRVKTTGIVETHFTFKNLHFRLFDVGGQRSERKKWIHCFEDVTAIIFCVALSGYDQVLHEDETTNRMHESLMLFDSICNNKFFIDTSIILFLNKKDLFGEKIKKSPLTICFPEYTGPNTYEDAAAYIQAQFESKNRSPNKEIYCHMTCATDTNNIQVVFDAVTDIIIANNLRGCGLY
The assay can be described thus: co-IP; N2a cells co-transfected with Gαo-GFP constructs and mRFP-Gβ1/mRFP-Gγ3 (1:1:1) or HA-RGS19 (1:1); cleared lysates (20 mM Tris-HCl pH 8.0, 1% Triton X-100, 10% glycerol in PBS) incubated with GST-tagged anti-GFP nanobody, then Glutathione Sepharose 4B beads overnight at 4 °C; Western blot for GFP, mRFP and/or HA; quantification normalized to the precipitated Gαo-GFP. To be noted: partners not purified.

B1: 3xHA-RGS19 (natural protein, UniProt P49795 1-217, looked up)
chain: MPTPHEAEKQITGPEEADRPPSMSSHDTASPAAPSRNPCCLCWCCCCSCSWNQERRRAWQASRESKLQPLPSCEVCATPSPEEVQSWAQSFDKLMHSPAGRSVFRAFLRTEYSEENMLFWLACEELKAEANQHVVDEKARLIYEDYVSILSPKEVSLDSRVREGINKKMQEPSAHTFDDAQLQIYTLMHRDSYPRFLSSPTYRALLLQGPSQSSSEA
notes: RGS19 (regulator of G-protein signaling 19); also called 3×HA-RGS19; RGS19 (tagged with 3 × HA); source: N2a cells, transfected, in lysate
B1: the “fold reduction of co-precipitated RGS19 against wild-type Gαo-GFP” value is more than 2 fold.
